Results from publication PMC5056641.

Target: SRSF1 (ASF/SF2), unphosphorylated (human, UniProt Q07955 1-248)
Assay: filter binding

Sequence of SRSF1 (ASF/SF2), unphosphorylated (Q07955 whole entry): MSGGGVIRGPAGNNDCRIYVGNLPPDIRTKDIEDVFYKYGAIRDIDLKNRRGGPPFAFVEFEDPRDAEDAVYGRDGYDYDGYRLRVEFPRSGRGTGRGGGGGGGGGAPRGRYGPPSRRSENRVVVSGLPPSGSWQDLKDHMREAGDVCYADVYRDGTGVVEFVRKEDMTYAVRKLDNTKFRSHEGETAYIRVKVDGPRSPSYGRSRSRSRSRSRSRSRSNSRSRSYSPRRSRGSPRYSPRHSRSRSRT

Binder: AGGCGGAGGAAGC (ssRNA) [Ron ESE 13mer]
- apparent K (half saturation): 66 ± 2 nM
